Where no end group is shown, it is not given here. The star is where a group is joined. Biotin = O=C1N[C@H]2[C@H](CS[C@H]2CCCCC(=O)*)N1
How the values were obtained:
[1] = target: T1, biotin-peptide YVNFNFTDFY (human); experiment: ELISA biotin-peptide; scFv 10 ug/mL; repI
T1 peptide: Biotin-YVNFNFTDFY
Experimental: (§1) The peptides were synthesized naked or with a N-terminal Biotin modification with a purity of >98%. All four scFvs were verified by ELISA that can be detected with anti-His antibodies. ELISA was performed for scFv-peptide binding validation. Briefly, naked peptides were coated (50 μg/mL) in 0.58M carbonate-bicarbonate buffer pH9.5, 100 μL/well, 4° C. O/N. Then after blocking (3% BSA-PBS, 300 μL/well 37° C. 1.5 h) and washing (PBS+Tween-20 0.05% v/v (0.05% PBST), wells were incubated with each purified scFv antibody at concentration of 1 μg/mL in PBS at 37° C. 1 h. After washing (0.05% PBST), wells were incubated with secondary antibodies (goat anti-His IgG-HRP) in PBS, 37° C., 30 min. After washing, and incubation with TMB substrate, reactions were stopped with 2M HCl and reading was quantified at OD450.
(§2) Then a library of overlapping peptides were designed and constructed separately to produce 16 different peptides, covering full antigen sequence of total 48 aa. Peptide size was 10aa, with 7aa overlapping and ELISA screening of scFv against each peptide was performed in duplicate. Screening was performed using naked peptides in a standard plate or biotinylated peptides using avidin-plates. The list of overlapping peptides was as follows:
(§3) ELISA with biotin-conjugated peptides (5 μg/mL) was performed very similar to described above with minor modifications.

[2] = target: T2, biotin-peptide TDFTSPIPNM (human); experiment: ELISA biotin-peptide; scFv 10 ug/mL; repI
T2 peptide: Biotin-TDFTSPIPNM
Experimental: as §1, §2, §3

[3] = target: T3, biotin-peptide TSSMEDYVNF (human); experiment: ELISA biotin-peptide; scFv 10 ug/mL; repI
T3 peptide: Biotin-TSSMEDYVNF
Experimental: as §1, §2, §3

[4] = target: T4, biotin-peptide MEDYVNFNFT (human); experiment: ELISA biotin-peptide; scFv 10 ug/mL; repI
T4 peptide: Biotin-MEDYVNFNFT
Experimental: as §1, §2, §3

[5] = target: T5, biotin-peptide SMEDYVNFNF (human); experiment: ELISA biotin-peptide; scFv 10 ug/mL; repI
T5 peptide: Biotin-SMEDYVNFNF
Experimental: as §1, §2, §3

[6] = target: T6, biotin-peptide SSMEDYVNFN (human); experiment: ELISA biotin-peptide; scFv 10 ug/mL; repI
T6 peptide: Biotin-SSMEDYVNFN
Experimental: as §1, §2, §3

[7] = target: T7, biotin-peptide SESTSSMEDY (human); experiment: ELISA biotin-peptide; scFv 10 ug/mL; repI
T7 peptide: Biotin-SESTSSMEDY
Experimental: as §1, §2, §3

[8] = target: T8, biotin-peptide TDFYCEKNNV (human); experiment: ELISA biotin-peptide; scFv 10 ug/mL; repI
T8 peptide: Biotin-TDFYCEKNNV
Experimental: as §1, §2, §3

[9] = target: T9, biotin-peptide MTPTDFTSPI (human, also: prints MTPTDFTSP, without I10); experiment: ELISA biotin-peptide; scFv 10 ug/mL; repI
T9 peptide: Biotin-MTPTDFTSPI
Experimental: as §1, §2, §3

[10] = target: T10, biotin-peptide FNFTDFYCEK (human); experiment: ELISA biotin-peptide; scFv 10 ug/mL; repI
T10 peptide: Biotin-FNFTDFYCEK
Experimental: as §1, §2, §3

biotin-peptide KNNVRQFAS = target: T11, biotin-peptide KNNVRQFAS (human); experiment: ELISA biotin-peptide; scFv 10 ug/mL; repI
T11 peptide: Biotin-KNNVRQFAS
Experimental: as §1, §2, §3

[11] = target: T12, biotin-peptide DYGSESTSSM (human); experiment: ELISA biotin-peptide; scFv 10 ug/mL; repI
T12 peptide: Biotin-DYGSESTSSM
Experimental: as §1, §2, §3

[12] = target: T13, biotin-peptide YCEKNNVRQF (human); experiment: ELISA biotin-peptide; scFv 10 ug/mL; repI
T13 peptide: Biotin-YCEKNNVRQF
Experimental: as §1, §2, §3

[13] = target: T14, biotin-peptide TSPIPNMADD (human); experiment: ELISA biotin-peptide; scFv 10 ug/mL; repI
T14 peptide: Biotin-TSPIPNMADD
Experimental: as §1, §2, §3

[14] = target: T15, biotin-peptide MADDYGSEST (human); experiment: ELISA biotin-peptide; scFv 10 ug/mL; repI
T15 peptide: Biotin-MADDYGSEST
Experimental: as §1, §2, §3

[15] = target: T16, biotin-peptide IPNMADDYGS (human); experiment: ELISA biotin-peptide; scFv 10 ug/mL; repI
T16 peptide: Biotin-IPNMADDYGS
Experimental: as §1, §2, §3

naked peptide DYGSESTSSM = target: T17, naked peptide DYGSESTSSM (human); experiment: ELISA naked peptide; scFv 1 ug/mL; repI
T17 peptide: DYGSESTSSM
Experimental: as §1
as §2, with “avidin-plates.” for “avidin-plates. The list of overlapping peptides was as follows:”

naked peptide IPNMADDYGS = target: T18, naked peptide IPNMADDYGS (human); experiment: ELISA naked peptide; scFv 1 ug/mL; repI
T18 peptide: IPNMADDYGS
Experimental: as §1
as §2, with “avidin-plates.” for “avidin-plates. The list of overlapping peptides was as follows:”

naked peptide YCEKNNVRQF = target: T19, naked peptide YCEKNNVRQF (human); experiment: ELISA naked peptide; scFv 1 ug/mL; repI
T19 peptide: YCEKNNVRQF
Experimental: as §1
as §2, with “avidin-plates.” for “avidin-plates. The list of overlapping peptides was as follows:”

naked peptide YVNFNFTDFY = target: T20, naked peptide YVNFNFTDFY (human); experiment: ELISA naked peptide; scFv 1 ug/mL; repI
T20 peptide: YVNFNFTDFY
Experimental: as §1
as §2, with “avidin-plates.” for “avidin-plates. The list of overlapping peptides was as follows:”

naked peptide KNNVRQFAS = target: T21, naked peptide KNNVRQFAS (human); experiment: ELISA naked peptide; scFv 1 ug/mL; repI
T21 peptide: KNNVRQFAS
Experimental: as §1
as §2, with “avidin-plates.” for “avidin-plates. The list of overlapping peptides was as follows:”

naked peptide SESTSSMEDY = target: T22, naked peptide SESTSSMEDY (human); experiment: ELISA naked peptide; scFv 1 ug/mL; repI
T22 peptide: SESTSSMEDY
Experimental: as §1
as §2, with “avidin-plates.” for “avidin-plates. The list of overlapping peptides was as follows:”

naked peptide SMEDYVNFNF = target: T23, naked peptide SMEDYVNFNF (human); experiment: ELISA naked peptide; scFv 1 ug/mL; repI
T23 peptide: SMEDYVNFNF
Experimental: as §1
as §2, with “avidin-plates.” for “avidin-plates. The list of overlapping peptides was as follows:”

naked peptide SSMEDYVNFN = target: T24, naked peptide SSMEDYVNFN (human); experiment: ELISA naked peptide; scFv 1 ug/mL; repI
T24 peptide: SSMEDYVNFN
Experimental: as §1
as §2, with “avidin-plates.” for “avidin-plates. The list of overlapping peptides was as follows:”

naked peptide MEDYVNFNFT = target: T25, naked peptide MEDYVNFNFT (human); experiment: ELISA naked peptide; scFv 1 ug/mL; repI
T25 peptide: MEDYVNFNFT
Experimental: as §1
as §2, with “avidin-plates.” for “avidin-plates. The list of overlapping peptides was as follows:”

naked peptide FNFTDFYCEK = target: T26, naked peptide FNFTDFYCEK (human); experiment: ELISA naked peptide; scFv 1 ug/mL; repI
T26 peptide: FNFTDFYCEK
Experimental: as §1
as §2, with “avidin-plates.” for “avidin-plates. The list of overlapping peptides was as follows:”

naked peptide TDFTSPIPNM = target: T27, naked peptide TDFTSPIPNM (human); experiment: ELISA naked peptide; scFv 1 ug/mL; repI
T27 peptide: TDFTSPIPNM
Experimental: as §1
as §2, with “avidin-plates.” for “avidin-plates. The list of overlapping peptides was as follows:”

naked peptide TSSMEDYVNF = target: T28, naked peptide TSSMEDYVNF (human); experiment: ELISA naked peptide; scFv 1 ug/mL; repI
T28 peptide: TSSMEDYVNF
Experimental: as §1
as §2, with “avidin-plates.” for “avidin-plates. The list of overlapping peptides was as follows:”

Binder | OD450 [1] [OD] | OD450 [2] [OD] | OD450 [3] [OD] | OD450 [4] [OD] | OD450 [5] [OD] | OD450 [6] [OD] | OD450 [7] [OD] | OD450 [8] [OD] | OD450 [9] [OD] | OD450 [10] [OD] | OD450 (biotin-peptide KNNVRQFAS) [OD] | OD450 [11] [OD] | OD450 [12] [OD] | OD450 [13] [OD] | OD450 [14] [OD] | OD450 [15] [OD] | OD450 (naked peptide DYGSESTSSM) [OD] | OD450 (naked peptide IPNMADDYGS) [OD] | OD450 (naked peptide YCEKNNVRQF) [OD] | OD450 (naked peptide YVNFNFTDFY) [OD] | other results
Comparative antibody 1 (Comp-1) scFv, SEQ ID NO: 10 from WO2023/037125 A1, His-tagged (scFv) scFv: QVQLKESGPGLVQPSQTLSLTCTVSGFSVASYDMHWVRLPPGKGLEWMGIIWANGNTHYNSGLKSRLSISRDTSKSQVFLKMNSLQTEDTAIYFCTRGGFAYWGQGTLVTVSSGGGGSGGGGSGGGGSGGGGSDVVMTQTPVSLSVSLGGQVSISCRSSQSLVHNNGNTYLSWYLQKPGQSPQLLIYKVSNRFSGVSDRFSGSGSGTDFTLKISRVEPDDLGVYYCGQGTQYPTFGGGTKLELKHHHHHH | 0.1 | 0.06 | 0.1 | 0.16 | 0.15 | 0.1 | 0.13 | 0.08 | 0.08 | 0.06 | 0.05 | 0.1 | 0.06 | 0.13 | 0.08 | 0.16 | 0.02 | 0.01 | 0.02 | 0.05 | OD450 (naked peptide KNNVRQFAS): 0.02 OD; OD450 (naked peptide SESTSSMEDY): 0.03 OD; OD450 (naked peptide SMEDYVNFNF): 0.02 OD; OD450 (naked peptide SSMEDYVNFN): 0.07 OD; OD450 (naked peptide MEDYVNFNFT): 0.05 OD; OD450 (naked peptide FNFTDFYCEK): 0.02 OD; OD450 (naked peptide TDFTSPIPNM): 0.03 OD; OD450 (naked peptide TSSMEDYVNF): 0.03 OD
Comparative antibody 3 (Comp-3) scFv, SR_92R (Somovilla-Crespo et al. 2018), His-tagged (scFv) scFv: EVKLEESGGGLVQPGGSMKLSCVASGFTFNKFWMNWVRQSPEKGLEWVAEIRLKSNNYATHYAESVKGRFTISRDDSKSSVYLQMNNLRAEDTGIYYCASDGWFAYWGQGTLVTVSAGGGGSGGGGSGGGGSGGGGSDVVMTQTPLSLPVSLGDQASISCRSSQSLVHSNGNTYLNWCLQRPGQSPKSLIYKVSNRFSGVPDRFSGSGSGTDFTLKISRVEAEDLGVYFCSQSTHFPRTFGGGTKLEIKRHHHHHH | 0.1 | 0.11 | 0.1 | 0.1 | 0.1 | 0.15 | 0.15 | 0.08 | 0.1 | 0.09 | 0.09 | 0.12 | 0.11 | 1.6 | 0.09 | 1.59 | 0.03 | 0.02 | 0.04 | 0.03 | OD450 (naked peptide KNNVRQFAS): 0.05 OD; OD450 (naked peptide SESTSSMEDY): 0.03 OD; OD450 (naked peptide SMEDYVNFNF): 0.05 OD; OD450 (naked peptide SSMEDYVNFN): 0.09 OD; OD450 (naked peptide MEDYVNFNFT): 0.05 OD; OD450 (naked peptide FNFTDFYCEK): 0.05 OD; OD450 (naked peptide TDFTSPIPNM): 0.07 OD; OD450 (naked peptide TSSMEDYVNF): 0.04 OD

Reference: patent publication US20260232732A1 (FUNDACI INSTITUT DE RECERCA CONTRA LA LEUC MIA JOSEP …, published 2026)
